Reference: patent US20170145086A1 (VISTERRA, published 2017)

T1: HA-GCN4 mAPRIL (amino acid residues 96-241) (mouse, UniProt Q9D777 96-241, Assembles as a homotrimer through the GCN4 zipper; one protomer is given.)
T1 construct: Bought (R&D Systems); also called HA-tagged mouse APRIL (R&D Systems); recombinant mouse APRIL; not shown: N-terminal HA tag and GCN4 isoleucine-zipper trimerisation domain, with any linker, of the bought R&D Systems protein
T1 sequence: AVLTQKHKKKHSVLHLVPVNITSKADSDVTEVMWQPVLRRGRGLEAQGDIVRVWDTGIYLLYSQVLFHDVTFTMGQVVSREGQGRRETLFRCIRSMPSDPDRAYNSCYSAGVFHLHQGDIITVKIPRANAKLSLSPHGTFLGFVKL


Assays:
[1] = target: T1, HA-GCN4 mAPRIL (amino acid residues …); experiment: indirect ELISA on mouse APRIL; row printed 4504, legend paragraph 738 says 4540
[2] = target: T1, HA-GCN4 mAPRIL (amino acid residues …); experiment: blocking ELISA; blocked: mouse APRIL binding to human BCMA-Fc
Experimental: Recombinant TACI-Fc or BCMA-Fc was coated on 96 well plates in 0.1 M carbonate-bicarbonate buffer (pH 9.6), overnight at 4° C. Plates were washed three times with 1×PBST (PBS+0.025% Tween 20) followed by blocking with 1% BSA in 1×PBS, 37° C. for 1 hour. All subsequent wash steps were carried out with 1×PBST. To assess antibody blocking, either 15 ng/mL or 50 ng/mL HA-GCN4-huAPRIL was preincubated with varying antibody concentrations ranging from 0.03-30 μg/mL in binding buffer comprised of 1% BSA and 0.025% Tween-20 in 1×PBS. Preincubation was carried out at 30° C. for 1 hour with mixing. Antibody-APRIL premix with 50 ng/mL APRIL or 15 ng/mL APRIL was then added to TACI-Fc coated or BCMA-Fc coated plates, respectively, and incubated for an additional hour at 30° C. HA-tagged APRIL binding to either receptor was quantified using a goat polyclonal anti-HA tag-HRP antibody (Abcam) added at a 1:10000 dilution followed by colorimetric development using 100 μl/well of freshly prepared TMB substrate (KPL) carried out for up to 30 minutes at room temperature before quenching enzymatic reaction by the addition of 1N sulfuric acid. ELISA signal was quantified by absorbance at 450 nm. ELISA data was analyzed by non-linear regression. IC₅₀ values were calculated based on a 4 parameter fit of antibody titration curves. […]

EC50 [1] [pM] | IC50 (read off the curve) [2] [µg/mL] | Binder
1.51 | – | monoclonal antibody 4540 (antibody, V domains shown, mouse-derived) VH: QVQLQQSGPELVKPGASVKISCKASGYTFADYYINWVKQRPGQGLEWIGWIFPGSGSTYYNEKFKGKATLTVDKSSSTAYMLLSSLTSEDSAVYFCARGDSGRAMDYWGQGTSVTVSS VL: DIQMTQSPSSLSASLGGKVTITCKASQDINKYIAWYQHKPGKGPRLLIHYTSTLQSGIPSRFSGSGSGRDYSFSISNLEPEDNATYYCLQYDNLLTFGAGTKLELK
– | ~0.3 | monoclonal antibody 3530 (antibody, mouse IgG2, V domains shown) VH: QVQLQQSGAELVRPGASVKLSCKASGYTFTDHEMHWVRQTPVHGLEWIGVIDPDTGDTTYNQKFKGKATLTADKSSSTAYMDLRSLTSEDSAVFYCTRWTGGDYWGHGTTLTVSS VL: DAVMTQTPLSLSVTIGQPASISCKSSQSLLYSDGKTYLNWFQQRPGQSPKRLMYQVSKLDPGIPDRFSGSGSETDFTLKISRVEAEDLGVYYCLQGTYYPYTFGSGTKLEIK
